Where two headings read alike, the source gives them in different places. Ends that are not written are not given here. * marks the point of attachment. Biotin = O=C1N[C@H]2[C@H](CS[C@H]2CCCCC(=O)*)N1; Octanoyl = CCCCCCCC(=O)*; GABA = NCCCC(=O)O
What was measured:
[1] = target: GFP-tagged Plasmepsin V (PmV-GFP), P. falciparum clone DC6 (Plasmodium falciparum)
[2] = target: GFP-tagged Plasmepsin V (PmV-GFP), P. falciparum clone DC6 (Plasmodium falciparum); remark: listed apart in the source
[3] = target: GFP-tagged Plasmepsin V (PmV-GFP), P. falciparum clone DC6 (Plasmodium falciparum); remark: listed apart in the source

GFP-tagged Plasmepsin V (PmV-GFP), P. falciparum clone DC6 (Plasmodium falciparum), sequence (Q8I6Z5 whole entry): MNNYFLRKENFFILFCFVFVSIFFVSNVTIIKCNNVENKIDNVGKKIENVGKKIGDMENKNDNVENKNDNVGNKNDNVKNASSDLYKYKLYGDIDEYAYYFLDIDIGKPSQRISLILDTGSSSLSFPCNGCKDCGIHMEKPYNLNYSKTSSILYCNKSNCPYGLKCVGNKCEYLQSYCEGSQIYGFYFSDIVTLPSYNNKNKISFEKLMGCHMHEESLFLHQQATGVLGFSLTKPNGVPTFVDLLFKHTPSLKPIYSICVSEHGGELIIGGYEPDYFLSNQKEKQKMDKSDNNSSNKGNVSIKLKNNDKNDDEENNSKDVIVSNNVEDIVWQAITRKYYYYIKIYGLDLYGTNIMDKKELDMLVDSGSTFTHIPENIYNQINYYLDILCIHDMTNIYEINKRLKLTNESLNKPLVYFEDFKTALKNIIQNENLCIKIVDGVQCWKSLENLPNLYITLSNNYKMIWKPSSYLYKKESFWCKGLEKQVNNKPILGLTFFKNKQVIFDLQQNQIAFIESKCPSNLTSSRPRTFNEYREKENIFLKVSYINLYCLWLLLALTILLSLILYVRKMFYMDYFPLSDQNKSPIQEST

Row | Binder | IC50 of inhibition of PmV cleavage of the fluorogenic HRPII-PExEl substrate [3] | further results
1 | {Biotin-GABA-GABA}-RLLAEA (also: hydroxyethylamino (HEA) isostere replaces P1 Leu-P1' Ala peptide bond) [Compound 36, a biotinylated version of Compound 1] |  | in vitro inhibitory activity (IC50) against PmV cleavage of the fluorogenic HRPII-PExEl substrate [1]: 42 nM
2 | Octanoyl-RLLYEA (not fully specified) [Compound 37a (octanoyl group at the N-terminus of Compound 7a)] |  | IC50 of inhibition of PmV cleavage of the fluorogenic HRPII-PExEl substrate [2]: 0.023 nM
3 | RLLYEA [Compound 37b (R epimer of Compound 37)] | 1.57 nM | 
4 | RLLAQA [Compound 8b (R epimer of Compound 8, glutamine in P2')] | 188 nM | 

From publication PMC4643876, “Picomolar Inhibition of Plasmepsin V, an Essential Malaria Protease, Achieved Exploiting the Prime Region” (PLoS ONE, 2015)
